Laboratory results from patent US12059448B2, “Pharmaceutical composition comprising thrombolytic peptide-tetrahydroisoquinoline conjugate” (Lumosa Therapeutics Co., LTD, priority 2019, dated 2024).

Experiment: Formulation stability in different pH solutions (Example 2), DC009 assay recovery by HPLC
Assay type: physicochemical
Protocol: DC009 were prepared according to the US Publication Application No. 2016-0083423. The final product was washed repetitively by DCM, THF and ethyl ether several times to increase the purity of the final product. The concentration and purity of DC009 in a solution are determined by HPLC with the following conditions. • Column: alkyl reversed-phase bounded phase column • Mobile Phase (MP): MP A: 0.1% by volume TFA in DI water/MP B: 0.1% by volume TFA in acetonitrile • Detection Wavelength: 214 & 280 nm • Column Temperature: 20-25° C. • Sample Temperature: 10-15° C. • Injection Volume: 10-20 μL • Gradient: MP A and MP B
In Examples 2-6, the stability of each formulation is shown as “assay recovery” or “relative purity level”. Samples at each time point was analyzed by HPLC as described above. For “Assay Recovery”, the % number is calculated by dividing the DC009 concentration at the time point by the DC009 concentration at T=0. For “Relative purity level”, the % number is calculated by (Peak area % of DC009 at Tn/Peak area % of DC009 at T0)*100%. […]
These formulations were stored at 40° C. and 60° C. to evaluate the assay recovery and total impurity. The appearance and stability at each storage condition were recorded at Table 2 and Table 3.

## C[C@H](NC(=O)[C@@H]1CCCN1)C(=O)N[C@@H](CCCCN)C(=O)NCCCC[C@H](NC(=O)[C@@H]1Cc2cc(O)c(O)cc2C(C)(C)N1)C(=O)O [DC009, 3S-6,7-dihydroxy-1,1-dimethyl-1,2,3,4-tetrahydro-isoquinoline-3-acyl-Lys(Pro-Ala-Lys)]
Acidic conditions
  stability of DC009: stable
pH between 4 and 5
  stability of DC009: very stable
